The values below come from patent US20150104466A1, “CYTOMEGALOVIRUS DISINTEGRIN-LIKE PEPTIDES” (priority 2013, published 2015).

A short description of series [1]: Solubility of gBDLD in MES buffer. It is filed as physicochemical. The settings on record: 55 mM MES, pH 5.5, 300 mM NaCl. How it is done:
DNA sequence corresponding to amino acids 57-146 of HCMV AD169 glycoprotein B disintegrin-like domain (“gBDLD”) was cloned into the bacterial expression vector pET-28a containing an N-terminal His-Tag with thrombin cleavage site and kanamycin resistance. (Commercially available from Novagen, San Diego, Calif.) gBDLD production was induced by the addition of 1 mM isopropyl-βD-thiogalactopyranoside (IPTG). E. coli Tuner strain containing pET-28a:gBDLD was grown at 37° C. in Luria-Bertani medium containing kanamycin (50 μg/mL) to an optical density at 600 nm of approximately 0.6. IPTG (1 mM) was added and the plates were incubated continuously for 4 h at 37° C. Cells were harvested by centrifugation at 4000 r/min for 10 min and pellets were resuspended in 1% Triton X-100/Ni-NTA buffer (300 mM NaCl/50 mM Tris-HCL pH 7.9) and lysed by 3×60 s bursts of sonication. The lysate was centrifuged at 15,000 r/min for 15 minutes at 4° C. The 8M urea/Ni-NTA fraction was then poured into a chromatography column containing nickel-nitriloacetic acid agarose (Ni-NTA) beads at 4° C. and allowed to flow through. […] Fractions containing protein were determined by measuring the absorbance of each fraction at 214 nm. Fractions that corresponded to absorption peaks were analyzed by sodium dodecyl sulfate polyacrylamide electrophoresis (SDS-PAGE) to determine the size of the protein. […]

Series [2] deals with T1, β1 integrin (Homo sapiens, UniProt P05556).
T1 construct: endogenous in cells; host or cells: Normal Human Dermal Fibroblasts (NHDF), 1% TX-100 lysate
Briefly: Integrin co-immunoprecipitation assay, Western blot for β1 integrin. It is filed as binding. Particulars: human fibroblast lysates, nickel beads. How it is done: (§1) A T-175 flask of NHDFs was grown to complete confluence, washed three times in MES buffer and lysed in 1 mL MES buffer+1% TX-100 (a detergent). Lysate was spun at 10,000 g for 10 minutes to remove cell debris. Cell lysate (350 μL) was then incubated with 20 μg gBDLD for 4 hours at 4° C. The lysate+gBDLD mixture was then incubated with 50 μL Ni beads overnight at 4° C. Nickel beads were then washed three times and protein eluted by boiling and then adding reducing SDS-PAGE buffer. Proteins were separated by SDS-PAGE and Western blotted for β1 integrin (Chemicon-1965) or β3 (Chemicon) as previously described.^48
(§2) To identify the cellular receptor for gBDLD we performed co-immunoprecipitation studies. Briefly, gBDLD was incubated with human fibroblast lysates and pulled down with nickel-conjugated agarose beads.
(§3) Because gBDLD contains a known β1 integrin binding motif, gBDLD bound to its cellular receptor was isolated by SDS-PAGE and then Western blotted for either β1 or β3 integrin. The resulting gels are shown in FIG. 10 (β1) and FIG. 11 (β3).
(In general: A western blot detects proteins with antibodies after separation by electrophoresis.)

Series [3] addresses Normal human dermal fibroblasts. The experiment in a line: Protein binding assay: gBDLD binding to human fibroblasts (His-tag ELISA). How it is done: Normal human dermal fibroblasts were chilled to 4° C., washed three times with cold MES buffer and blocked with 1 mg/mL bovine serum albumin (BSA) for 30 minutes at 4° C. Unbound BSA was removed with cold MES washes (×4). The indicated amounts of gBDLD were added to each well for 90 minutes at 4° C. Cells were then washed three times with cold MES, twice with cold (phosphate-buffered saline (PBS) and fixed with 3% paraformaldehyde. An ELISA was then performed probing with anti-His rabbit polyclonal antibody (Santa Cruz Biotechnology, Santa Cruz, Calif.) and anti-rabbit HRP (Pierce). Absorbance was measured at 405 nm.
FIG. 7 is a graph depicting the results of a gBDLD binding assay (performed as described previously). Here, binding was measured by absorbance at 405 nm. […] To generate the data, human fibroblasts were incubated with gBDLD for the indicated times at 4° C. Cells were then washed, fixed and an ELISA was performed probing for the gBDLD […] his-tag. […]
FIG. 8 is a graph depicting gBDLD binding to human fibroblasts. As is readily apparent from FIG. 8, this binding is dose-dependent and saturable. […] After three IVIES washes and two PBS washes, cells were fixed in 3% paraformaldehyde and a His-tag ELISA was performed to quantitate gBDLD bound to cells.
(An ELISA detects its analyte on a solid surface through an enzyme-linked reagent.)

For series [4], the system named is diI-labeled HCMV. Format: cell-based, Human cytomegalovirus. The settings on record: gBDLD or BSA 320 μg/mL, soluble heparin 50 μg/mL; 24 hours post-infection.
The target in series [5] is T2, β3 integrin (Homo sapiens, UniProt P05106).
T2 construct: endogenous in cells; host or cells: Normal Human Dermal Fibroblasts (NHDF), 1% TX-100 lysate
The experiment in a line: Integrin co-immunoprecipitation assay, Western blot for β3 integrin. The settings on record: human fibroblast lysates, nickel beads. Format: binding. How it is done:
as §1, §2, §3

The test system of series [6] is NHDF cells. The experiment in a line: Cytoskeletal rearrangement in NHDF cells (actin staining with phalloidin). Format: cell-based, human. The settings on record: compared to buffer alone. From the text: gBDLD Triggers Cytoskeletal Rearrangements: β1 integrins are known inducers of broad signal transduction events. […] To test the role of gBDLD in mediating signaling events, we stimulated NHDF cells with buffer alone, gBDLD, or a known cytoskeletal reorganizer (EGF), followed by actin staining with phalloidin.

T2 sequence (P05106 27-788): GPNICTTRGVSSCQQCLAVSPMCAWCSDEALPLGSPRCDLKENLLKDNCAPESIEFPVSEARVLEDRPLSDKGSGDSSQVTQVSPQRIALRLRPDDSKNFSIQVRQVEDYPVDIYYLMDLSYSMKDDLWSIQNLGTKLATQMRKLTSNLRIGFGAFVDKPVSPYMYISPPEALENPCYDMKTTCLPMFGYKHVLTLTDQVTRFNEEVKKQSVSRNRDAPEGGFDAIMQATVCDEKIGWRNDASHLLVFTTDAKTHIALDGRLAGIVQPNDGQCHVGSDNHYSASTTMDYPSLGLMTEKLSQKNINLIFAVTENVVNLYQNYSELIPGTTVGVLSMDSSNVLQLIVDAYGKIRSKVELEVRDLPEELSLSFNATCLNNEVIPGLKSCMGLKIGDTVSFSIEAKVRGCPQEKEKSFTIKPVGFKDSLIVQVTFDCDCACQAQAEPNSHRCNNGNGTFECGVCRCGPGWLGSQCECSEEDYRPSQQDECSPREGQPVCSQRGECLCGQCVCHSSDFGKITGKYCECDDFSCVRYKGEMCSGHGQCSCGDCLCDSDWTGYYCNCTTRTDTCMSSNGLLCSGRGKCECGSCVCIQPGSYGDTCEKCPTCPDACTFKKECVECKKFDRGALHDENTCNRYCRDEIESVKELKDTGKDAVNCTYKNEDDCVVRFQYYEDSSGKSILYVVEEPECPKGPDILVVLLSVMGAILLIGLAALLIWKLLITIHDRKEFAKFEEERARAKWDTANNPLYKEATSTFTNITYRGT
T2 sequence (P06756 31-889 partner limits assumed): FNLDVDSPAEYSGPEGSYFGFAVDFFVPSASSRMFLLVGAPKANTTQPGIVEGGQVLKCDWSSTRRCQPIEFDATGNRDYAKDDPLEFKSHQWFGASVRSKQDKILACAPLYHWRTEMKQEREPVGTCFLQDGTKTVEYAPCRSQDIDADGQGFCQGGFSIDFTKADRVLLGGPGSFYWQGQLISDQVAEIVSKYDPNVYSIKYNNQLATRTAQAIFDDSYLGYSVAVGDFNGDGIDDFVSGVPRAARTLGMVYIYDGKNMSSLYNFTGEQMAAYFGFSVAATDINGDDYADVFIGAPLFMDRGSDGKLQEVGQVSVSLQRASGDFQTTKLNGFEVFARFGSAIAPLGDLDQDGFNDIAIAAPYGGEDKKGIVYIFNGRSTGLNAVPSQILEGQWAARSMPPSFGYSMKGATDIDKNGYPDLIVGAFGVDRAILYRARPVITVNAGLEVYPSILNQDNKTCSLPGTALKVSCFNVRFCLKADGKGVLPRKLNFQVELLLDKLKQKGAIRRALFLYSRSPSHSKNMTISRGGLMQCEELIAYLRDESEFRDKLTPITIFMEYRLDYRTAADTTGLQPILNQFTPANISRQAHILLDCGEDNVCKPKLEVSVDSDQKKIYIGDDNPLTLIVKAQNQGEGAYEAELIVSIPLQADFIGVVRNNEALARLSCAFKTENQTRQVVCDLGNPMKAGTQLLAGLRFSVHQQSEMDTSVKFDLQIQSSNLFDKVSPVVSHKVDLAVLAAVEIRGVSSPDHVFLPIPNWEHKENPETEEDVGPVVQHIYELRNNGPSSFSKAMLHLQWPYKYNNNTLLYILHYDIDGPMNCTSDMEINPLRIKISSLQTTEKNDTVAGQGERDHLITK
T2 sequence (P06756 891-1048 partner limits assumed): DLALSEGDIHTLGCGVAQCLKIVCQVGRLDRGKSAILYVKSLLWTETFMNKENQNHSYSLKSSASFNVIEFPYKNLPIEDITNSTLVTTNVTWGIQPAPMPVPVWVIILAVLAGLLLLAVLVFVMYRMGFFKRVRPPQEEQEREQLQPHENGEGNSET
T1 sequence (P05556 21-798): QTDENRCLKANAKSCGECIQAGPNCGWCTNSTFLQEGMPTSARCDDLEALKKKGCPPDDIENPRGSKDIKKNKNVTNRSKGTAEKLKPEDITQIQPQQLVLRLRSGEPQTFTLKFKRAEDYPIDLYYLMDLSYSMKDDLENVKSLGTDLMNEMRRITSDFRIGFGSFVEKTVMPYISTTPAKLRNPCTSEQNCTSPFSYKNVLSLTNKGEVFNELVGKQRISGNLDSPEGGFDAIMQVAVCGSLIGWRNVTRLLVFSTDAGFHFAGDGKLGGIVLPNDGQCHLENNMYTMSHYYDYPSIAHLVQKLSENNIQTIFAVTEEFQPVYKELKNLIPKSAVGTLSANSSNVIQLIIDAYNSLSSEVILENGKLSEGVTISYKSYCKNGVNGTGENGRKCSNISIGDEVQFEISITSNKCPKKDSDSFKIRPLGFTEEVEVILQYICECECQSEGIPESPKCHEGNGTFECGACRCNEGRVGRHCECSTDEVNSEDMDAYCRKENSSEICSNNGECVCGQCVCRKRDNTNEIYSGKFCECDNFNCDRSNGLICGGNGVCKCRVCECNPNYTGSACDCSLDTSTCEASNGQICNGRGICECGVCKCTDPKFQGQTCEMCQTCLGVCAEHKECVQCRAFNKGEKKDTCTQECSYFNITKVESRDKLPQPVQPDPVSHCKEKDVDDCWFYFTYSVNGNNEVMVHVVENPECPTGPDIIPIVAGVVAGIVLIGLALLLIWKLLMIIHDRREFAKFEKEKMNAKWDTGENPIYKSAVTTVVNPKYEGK

B1: gBDLD: amino acids 57-146 of HCMV AD169 glycoprotein B disintegrin-like domain, His-tagged, expressed in E. coli (protein)
chain: VTSSEAVSHRANETIYNTTLKYGDVVGVNTTKYPYRVCSMAQGTDLIRFERNIICTSMKPINEDLDEGIMVVYKRNIVAHTFKVRVYQKV
modifications: left off: small tags and cut ends
notes: amino acids 57-146 of HCMV AD169 glycoprotein B disintegrin-like domain, His-tagged, expressed in E. coli
For the molecule B1, the Solubility result in series [1] was “approximately 1 mg/mL”. In addition, the “interaction with β1 integrin (pull down)” value in series [2] is recorded as “interacts with β1 integrins”. The “kinetics of gBDLD binding to human fibroblasts” value in series [3] (4° C., absorbance at 405 nm) is listed as “rapid kinetics”. Moreover, the “concentration at which binding to fibroblast monolayers reached saturation” value in series [3] (60 minutes, after BSA blocking) worked out at 12.5 µg/mL. For the same molecule, the “block of HCMV fusion and gene expression” value in series [4] was “complete block of HCMV fusion and gene expression”. For the same molecule, the “interaction with β3 integrin (pull down)” value in series [5] is reported as “does not interact with β3 integrins”. In series [6], the “reorganization of the cytoskeleton” value is recorded as “triggered a dramatic reorganization of the cytoskeleton”.
